pEC50, pKd: −log10 of the molar value.
Key:
human IL-1α (human) [1] = target: human IL-1α (human) (UniProt P01583); test: cell-based or functional assay
human IL-1β (human) [2] = target: human IL-1β (human) (UniProt P01584); test: cell-based or functional assay
human IL-1α (human) [3] = target: human IL-1α (human) (UniProt P01583); test: SPR, Biacore T200; binder captured by anti-human Fc, cytokine injected; 1:1 Langmuir
human IL-1β (human) [4] = target: human IL-1β (human) (UniProt P01584); test: as above
mouse IL-1α (mouse) = mouse IL-1α (mouse) (UniProt P01582); test: as above
mouse IL-1β (mouse) = mouse IL-1β (mouse) (UniProt P10749); test: as above
[5] = target: rhesus monkey (Rhesus macaque) IL-1β (rhesus monkey (Rhesus macaque)) (UniProt P48090); test: as above
human FcγRI (human) [6] = target: human FcγRI (human) (UniProt P12314); test: BLI, Octet Red96e; His-tagged FcγRI on anti-Penta-HIS sensor, 80-1,280 nM analyte; 1:1 model
human IL-1β (human) [7] = target: human IL-1β (human) (UniProt P01584); test: ELISA, human IL-1β coated at 30 ng/well, detection with anti-human IgG Fc-HRP, OD 450 nm
human FcγRIIIA (human) [8] = target: human FcγRIIIA (human) (UniProt P08637); test: BLI, Octet Red96e; His-tagged FcγRIIIA on anti-Penta-HIS sensor, 80-1,280 nM analyte; 1:1 model
human FcγRIIIA (human) [9] = target: human FcγRIIIA (human) (UniProt P08637); test: BLI (Octet Red96e), His-tagged human FcγRIIIA on Anti-Penta-HIS biosensor, analyte 80-1280 nM, 1:1 model [B]
[10] = target: Human FcRn (Homo sapiens) (UniProt P55899); test: BLI (Octet Red96e), His-tagged human FcRn on Anti-Penta-HIS biosensor, pH 6.0, analyte 31.25-1000 nM, 1:1 model [A]
human FcγRI (human) [11] = target: human FcγRI (human) (UniProt P12314); test: BLI (Octet Red96e), His-tagged human FcγRI on Anti-Penta-HIS biosensor, analyte 10-160 nM as printed on the sheet, 1:1 model [B]

Chain of mouse IL-1α (mouse) (P01582 115-270 limits assumed): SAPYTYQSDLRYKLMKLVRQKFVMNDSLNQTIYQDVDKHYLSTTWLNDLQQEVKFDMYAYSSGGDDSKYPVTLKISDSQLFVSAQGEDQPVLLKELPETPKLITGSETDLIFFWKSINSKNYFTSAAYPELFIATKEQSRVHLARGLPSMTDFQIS
Chain of mouse IL-1β (mouse) (P10749 118-269 limits assumed): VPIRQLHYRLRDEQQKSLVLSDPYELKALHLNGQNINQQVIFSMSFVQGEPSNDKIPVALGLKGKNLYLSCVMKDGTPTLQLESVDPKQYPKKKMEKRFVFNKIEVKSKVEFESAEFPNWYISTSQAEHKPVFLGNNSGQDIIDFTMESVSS
Chain of human FcγRIIIA (human) (P08637 17-208 limits assumed): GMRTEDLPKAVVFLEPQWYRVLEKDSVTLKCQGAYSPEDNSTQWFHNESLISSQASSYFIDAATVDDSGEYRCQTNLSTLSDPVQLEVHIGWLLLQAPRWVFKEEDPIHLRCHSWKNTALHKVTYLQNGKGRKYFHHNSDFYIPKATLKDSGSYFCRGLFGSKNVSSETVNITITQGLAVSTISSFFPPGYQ
Chain of human IL-1α (human) (P01583 113-271 limits assumed): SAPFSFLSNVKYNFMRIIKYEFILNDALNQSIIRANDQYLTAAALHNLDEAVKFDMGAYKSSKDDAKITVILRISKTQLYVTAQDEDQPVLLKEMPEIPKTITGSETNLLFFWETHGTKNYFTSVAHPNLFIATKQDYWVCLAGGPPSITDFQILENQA
Chain of human FcγRI (human) (P12314 16-288 limits assumed): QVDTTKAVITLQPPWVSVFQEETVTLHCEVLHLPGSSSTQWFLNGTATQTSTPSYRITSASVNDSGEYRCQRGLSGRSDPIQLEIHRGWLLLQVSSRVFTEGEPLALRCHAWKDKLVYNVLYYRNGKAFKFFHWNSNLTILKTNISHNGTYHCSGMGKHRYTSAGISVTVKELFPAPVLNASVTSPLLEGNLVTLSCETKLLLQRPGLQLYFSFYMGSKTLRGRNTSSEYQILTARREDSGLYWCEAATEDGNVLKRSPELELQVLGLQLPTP

SEAP secretion, IL-1β reporter HEK 293 cell line, 10 ng/ml human IL-1α (human IL-1α (human) [1]): 0.308 nM
EC50 of in vivo neutralisation: inhibition of the rise of serum IL-6 in C57BL/6 mice given human IL-1β (300 ng/kg i.p.) 24 h after s.c. rilonacept (human IL-1β (human) [2]): 10.5 µg/kg
IL-1β-mediated IL-6 secretion, A549 cell line, 1 ng/ml IL-1β (human IL-1β (human) [2]): 37 pM
SEAP secretion, IL-1β reporter HEK 293 cell line, 10 ng/ml human IL-1β (human IL-1β (human) [2]): 0.243 nM
inhibition of SEAP secretion at 4 nM, IL-1β reporter HEK 293 cell line (human IL-1β (human) [2]): 99.5%
inhibitory activity (%) on the IL-1β-induced rise of serum IL-6 in mice, at a 3-fold molar excess over the administered IL-1β (human IL-1β (human) [2]): 50%
pKd (human IL-1α (human) [3]): 11.31
koff (human IL-1α (human) [3]): 4.5e-05 s⁻¹
kon (human IL-1α (human) [3]): 9.18e+06 M⁻¹ s⁻¹
pKd (human IL-1β (human) [4]): 11.59
koff (human IL-1β (human) [4]): 8.67e-05 s⁻¹
kon (human IL-1β (human) [4]): 3.39e+07 M⁻¹ s⁻¹
pKd (mouse IL-1α (mouse)): 10.42
koff (mouse IL-1α (mouse)): 0.000178 s⁻¹
kon (mouse IL-1α (mouse)): 4.66e+06 M⁻¹ s⁻¹
pKd (mouse IL-1β (mouse)): 9.43
koff (mouse IL-1β (mouse)): 0.000328 s⁻¹
kon (mouse IL-1β (mouse)): 890000 M⁻¹ s⁻¹
pKd [5]: 11.75
koff [5]: 2.43e-05 s⁻¹
kon [5]: 1.36e+07 M⁻¹ s⁻¹
pKd (human FcγRI (human) [6]): 7.34
pEC50 (human IL-1β (human) [7]): 10.02
pKd (human FcγRIIIA (human) [8]): 6.04
koff (human FcγRIIIA (human) [9]): 0.0538 s⁻¹
kon (human FcγRIIIA (human) [9]): 59000 M⁻¹ s⁻¹
pKd [10]: 6.34
koff [10]: 0.0489 s⁻¹
kon [10]: 108000 M⁻¹ s⁻¹
koff (human FcγRI (human) [11]): 0.00209 s⁻¹
kon (human FcγRI (human) [11]): 45600 M⁻¹ s⁻¹
Substance: rilonacept (Fc fusion)
